# Source: a protein production outcome set (Wang et al. 2014)
# Assay: label from the status in PepcDB records
row,Sequence,protein production
1,MSLENKENLVVIDLAIAEDSIQKKNIVYDKNGQNHFDVISAFIKSIRGSDPDATLYWLANMVEAGEDPNFIFRRLLISACEDIGLADPNAIVVVQSCCDAFDRVGFPEGLFFLSQASLYLAISPKSNSTKSIFKAMEAIKATNVSLVPNHLKNNASNYLNPHNYQGKWLQQEYLPTDLQGIKFWKPKDSGWEKNKYEDLPKKQKSEGHHHHHH,not failed
2,MSLESGFLEDAQANLTLRNFYFNRNFTNPTKAQGKAEEWTQSFILDAKSGFTQGTVGFGMDVLGLYSLKLDGGKGTGGTQLLPLDHDGRPADNFGRLGVAFKARLSQTEVKVGEWMPVLPILRSDDGRSLPQTFRGGQITSKEIAGLTLYGGQFRANSPRDDSSMSDMSMFGKAAFTSDRFNFQGAEYAFNDKRTQIALWNAQLKDIYSQQFINLIHSQPLGDWTLGANLGFFYGKEDGSARAGDMENRTWSGLFSAKYGGNTFYVGLQKLTGDSAWMRVNGTSGGTLANDSYNASYDNAKEKSWQVRHDYNFAALGVPGLTLMNRYISGSNVHTATVSDGKEWGRESEVAYTVQSGTLKNLNLKWRNSTMRRDFSNNEFDENRLIISYPLSLLEGHHHHHH,not failed
3,MSLFIALCGLILAGRLILKNYNPQGVLFFVGIVMMTISIFTNNATFVDKSTGWIGFDVFEYISMVFGKQSGGLGLKIMLIGGFALLMSAIGASQVMVKLTAKPLMKLNSPYLMLALAFILGQMLSLFISSATGLGLLLMATLYPVLIRLGCSKAGVASVLASTCAIEFGPGSGNSILAAQTAGLEITEYFVGEQLPIISVLIIVVAIMHAITQRFFDRNDEKNQTLEPINYEDIESEQSAPFYYVILPMLPLFFMLTFSSLGVKTINVGMATAIILSIFISLVFEFIREREVKPVFEKLQGVFDDMGKVFASVVTLIIAGQTFSMGLKSIGAIDSMLHMASSVGLSAAVIILFMALLTFIISALMGSGNAAFFSFAPMVPQIAHKIGANTVDMILPIQLSAGFGRTISPIAGVIIAVAGISGLSPFDIVRRTLIPMVSGWLLMLILTFSKGGQLEQLMPFLIVILVLSVGVGWIMKRKNNRTQLTQ,failed
4,MSLFKRSVVSEITSHAGVVFSTLVVVWLSVLLVRLLGEAAGGSIGADVVLGLAAFSTITALPTILAVSLFIAVLTTVTRNYRESEMVVWFASGLSLADWLRPVARVAVPIAMLVAALTLVASPWAYRQIGEYRERFEQRSDLSKVTAGQFAESGRGDRVFFAEDPVRPGDELGAVFARSIDPEWLSVLTASNARSETLPNGDRFLVLGEGHRYDLKPGTPEIRLVNFDQYGVRLESKAGEDPMAEARAAAERFSKARSTMQLVQDNTDSSWSQIMWRVAMPLAALNLALLAIPLGAVNPRLGRSGDLLIAGLVGLLYMNMINLSRAWISSGKISFSIGVWAVHAVVALLAAYLLMRRLRVKAPRNAGRGA,failed
5,MSLGALPTAEDIDAVVLDFDGTQTDDRVLIDSDGREFVSVHRGDGLGIAALRKSGLTMLILSTEQNPVVAARARKLKIPVLHGIDRKDLALKQWCEEQGIAPERVLYVGNDVNDLPCFALVGWPVAVASAHDVVRGAARAVTTVPGGDGAIREIASWILGPSLDSLDKEGHHHHHH,not failed
6,MSLGKRMGAELIGTFWLVLGGCGSAVLAASSPLGIGVLGVAFAFGLTVLTMAFAIGHISGCHLNPAVSFGLVVGGRFPAKELLPYVIAQVIGAILAAGVIYLIASGKAGFELSAGLASNGYADHSPGGYTLGAGFVSEVVMTAMFLVVIMGATDARAPAGFAPIAIGLALTLIHLISIPVTNTSVNPARSTGPALFVGGWALQQLWLFWVAPLIGAAIGGALYRGLAKEP,failed
7,MSLGLDYEPSHLMFLVTVLDDRDGEVLGDAIQKLIEREEVLACHAVPCVTKKNRPGHVLVVLVDGGEDPDRVAEDVARDIMVLTGSTGVDRFDADGVYSVPSRFEDVRVVYGEREWRVSVKIAETEEGEVVTVKAEFDECREIGEETGIPPREVKAMVEAAARVGGWVDLKEREIKVQEGHHHHHH,not failed
8,MSLGTIIIVDDNKGVLTAVQLLLKNHFSKVITLSSPVSLSTVLREENPEVVLLDMNFTSGINNGNEGLFWLHEIKRQYRDLPVVLFTAYADIDLAVRGIKEGASDFVVKPWDNQKLLETLLNAASQAKDGKKEGHHHHHH,not failed
9,MSLGVLRYTLRARGHPNVTAGHRTTFEVTVDPEIGETADCIIGVSSSDSISTLPDEMKRAIARESSLVRVILRTENGYDEIRGYGHPELTLDHPTDIVCRKSDYICSRTLMIRADKAAFDLDENLVRDLRKGRELKVEIIVEYEGHHHHHH,not failed
10,MSLITNAKLYPPRHPRAVHLAHHLAAIAPGVLVTAAIAAAAVGLRAIPGMPGISPMLLAILIGIVAHNGIGTPSWAVPGVKFSLRRVLRFAIILLGLQLTTAQLIEVGGEGLAIIAATLLATFCFTVWFGRVLGVDRKLTELIAAGTSICGASAIIATNTVTRADDEDVAYGVACVTVFGSLAMVSYPLLQSVLNLDAHGFGLWTGASIHEIAQAVAVSFQGGQRAGEFGTIAKLSRVMMLAPLVIGLGMLARVRAKHQPAGDHTATPPMPWFVLGFVAMIGVNEFVAIPHEAKSWIVAITAFLLSMALAAMGLETDLRKLAARGLRPALLGLTASLFIAGFSLALIKLTGWHG,failed
11,MSLIVSTIASHSSLQILLGAKKEGFKTRLYVSPKRRPFYSSLPIVDDLVVAEEMTSILNDDGIVVPHGSFVAYLGIEAIEKAKARFFGNRRFLKWETTFELQDKALEGAGIPRVEVVEPEDAKPDELYFVRIEGPRGGSGHFIVEGSELEERLSTLEEPYRVERFIPGVYLYVHFFYSPILERLELLGVDERVLIADGNARWPVKPLPYTIVGNRAIALRESLLPQLYDYGLAFVRTMRELEPPGVIGPFALHFAYDGSFKAIGIASRIDGGSNADHWYSELYWGERLSMGRRIARELRLAEEEDRLEEVVTEGHHHHHH,not failed
12,MSLKAVIFDLDGVITDTAEYHFLAWKHIAEQIDIPFDRDMNERLKGISREESLESILIFGGAETKYTNAEKQELMHRKNRDYQMLISKLTPEDLLPGIGRLLCQLKNENIKIGLASSSRNAPKILRRLAIIDDFHAIVDPTTLAKGKPDPDIFLTAAAMLDVSPADCAAIEDAEAGISAIKSAGMFAVGVGQGQPMLGADLVVRQTSDLTLELLHEEWEQYRIRESEGHHHHHH,not failed
13,MSLKIAVLDDYQDAVRKLDCFNLLQDHEVKVFNNTVKGVGQLAARVADVEALVLIRERTRVTRQLLDRLPKLKIISQTGRVSRDAGGHIDLDACTDKGVVVLEGKGSPVAPAELTWALVMAAQRRIPQYVASLKHGAWQQSGLKSTTMPPNFGIGRVLKGQTLGIFGYGKIGQLVAGYGRAFGMNVLVWGRENSKERARADGFAVAESKEALFEQSDVLSVHLRLNDETRSIITVADLTRMKPTALFVNTSRAELVEENGLVTALNRGRPGMAAIDVFETEPILQGHTLLRMENCICTPHIGYVERESYEMYFGIAFQNILDVLQGNVDSVANPTALAPALIRAEGHHHHHH,not failed
14,MSLKKLLLLLIIVALFISAFAFDLTQYLSLDVLKEKQQQLNQLFVDYPFQVFAIYFVVYVASTALSLPGATILTLGAGAIFGLGWGLLLASFAASLGAFLAFLSARFILHDWVQEKFGDRLTAINRGMERDGAFYLLSLRLVPLFPFFVINLVMGLTKIKAWTFYWVSQVGMLLGTAVYVNAGTQLAQISSLGDVISADLIGAFVLLGIFPLIAKAVLAFVKRRKAFKGYKKPKSFDNNLVVIGAGSAGLVSAYIAATVKAKVTLIEKHKMGGDCLNTGCVPSKALLHVAELAHNARNASSAGVHVGEVSVDFKQVMQQVKSVIKDIEPHDSVERYTKLGVDVEQGDARIVSPWEVEVTSNVEGKSETKRITTRSIIIATGAKPLVPDFEGLDKVDYLTSDTLWELDELPKRLLVLGGGPIGCELSQAFQRLGSQVTQVEMAERLMGPEDADTVELLTRRLTAEGIDIRLNHKALRFEQHNGESVLIAEQTVDNESVDNQNADQSKDVEIPFDKVLIALGRQPNITGFGLEELGVQTNKTVSTNELLQTNFPNIYACGDVAGPYQLTHVASHQAWYASVNALFDPFKTFRADYSVIPWVTYTSPQVANVGLTEQQAKKADKPYEVTEYDIGELDRAIADDSAYGRVKVLTKPGKDELLGVNIVGPQAGELLAEYVLAMKYGIGLNKILGTIHSYPTLAEANKYVAGEWKRANAPQKLLTWVEKFHRWRRS,failed
15,MSLKRFDLIIRSSTVVTETTTYRADVAIRNGIVSAITEPGSISSDDGPAIDGTGLHLFPGMVDVHVHFNEPGRTEWEGFASGSKSLAAGGVTTYFDMPLNSNPPTITREELDKKRQLANEKSLVDYRFWGGLVPGNIDHLQDLHDGGVIGFKAFMSECGTDDFQFSHDETLLKGMKKIAALGSILAVHAESNEMVNALTTIAIEEQRLTVKDYSEARPIVSELEAVERILRFAQLTCCPIHICHVSSRKVLKRIKQAKGEGVNVSVETCPHYLLFSLDEFAEIGYLAKCAPPLRERQEVEDLWDGLMAGEIDLISSDHSPSLPQMKTGKTIFEVWGGIAGCQNTLAVMLTEGYHKRKMPLTQIVQLLSTEPAKRFGLYPQKGTIQVGAEASFTLIDLNESYTLNASDLYYRHPISPYVGQRFRGKVKHTICQGKHVYQDHEGHHHHHH,not failed
16,MSLKRILIVDDDTAILDSTKQILEFEGYEVEIAATAGEGLAKIENEFFNLALFDIKLPDMEGTELLEKAHKLRPGMKKIMVTGYASLENSVFSLNAGADAYIMKPVNPRDLLEKIKEKLDEQEKEGHHHHHH,not failed
17,MSLKYIIGMDVGTTATKGVLYDINGKAVASVSKGYPLIQTKVGQAEEDPKLIFDAVQEIIFDLTQKIDGKIAAISWSSQMHSLIGLGSDDELLTNSITWADNCAKSIVQDAKNRGFAQQIYRKTGMPMHPMAPIYKLLWLKNKKTEVFSQAQKWIGIKEYIIFRLTGKLVTDTTMAAGTGILNLKTLTWDQELLDILKIKKEQLPKIAQPTKVIFPIKTEYVKKLGIDSDTKIILGASDGYLSTIGVNAIDSDHCALNVGTSGAIRTIVDQPKIDPSASYFCYPADKTHYLLGGPVNNGGIVFNWARQTLFDADETPQDFLDVAQTAPAGSRNLIFLPYLGGERAPIWDANARGSFVGLTRMHQKPEMARAVIEGIIFNLYDAASNLIKNTKKPVAINATGGFLKSDFVRQLCANIFNVPIVTMKEQQSGTLAAMFLARQALGLNQDLSEIGQFAQADKVYFPNPKEAATYQKLFPLYCEIRNALAASYGKFSNINEGHHHHHH,not failed
18,MSLLHIAVLLPLIFALIIPFLYRFVKRIHLGWFVLPVPIVLFIYFISLISMTMSGNNVMKNLNWMPHIGMNFNLYVDGLGLLFSLLITGIGSLVVLYSIGYLSKSEQLGNFYCYLLLFMGAMLGVVLSDNFIILYLFWELTSFSSFLLISFWREKKASIYGAQKSLIITVLGGLSMLGGIILLSLATDTFSIQAMISKASDIQNSPFFILVMILFMIGAFTKSAQVPFYIWLPDAMEAPTPVSAYLHSATMVKAGLYLIARITPIFAISEGWVWTITLVGLITLFWASLNATKQHDLKGILAFSTVSQLGMIMSMLGIGAVSYHYQGANSQLYVAGFVAAIFHLINHATFKGALFMITGGIDHSTGTRDVKKLGGLLTIMPISFTLTVITTLSMAGVPPFNGFLSKEKFLESMINVTHLNLMSLNTLGILLPIIAIIGSIFTFVYSIKFILHIFFGSYKPEALPKQAHESSILMLISPIILTSLVIVFGLFPSILTQSIIEPASVAVSQTSNITAEFHLFHGITPAFLSTIGIYIIGILLLISFSYWVRLLQAHPYQLTLNHWYDTSGQRIPGYSENITNSYVTGFSRNNLVIILGILIALTFVTVISVPFSIDFKNVSHLRVFEGATVLFLLIASTFIIFAKSRLFSIIMLSAVGYAISVLFIFFKAPDLALTQFVVESISTALFLLCFYHLPNLNRYNEKPTFKLTNAVISIGVGLSVIILGLIGYGNRHFDSITKFYQEHVFDLAHGKNMVNVILVDFRGMDTLFESSVLGIAGLGVYTMIKLRLKQKNQSSEVNDHE,failed
